This note sets out measurements from article PMC7203701 (ACS Omega, 2020).

One data set deals with T1, DmoB (Arthrobacter globiformis, UniProt H0QJX4).
T1 sequence (H0QJX4 1-171): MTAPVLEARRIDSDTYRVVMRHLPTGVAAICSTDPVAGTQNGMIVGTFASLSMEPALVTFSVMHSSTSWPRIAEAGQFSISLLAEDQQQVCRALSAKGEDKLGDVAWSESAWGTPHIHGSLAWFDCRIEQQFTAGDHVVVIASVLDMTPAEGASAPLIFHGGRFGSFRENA
In words: fluorescence quenching titration of FMN with DmoB. The data set is classed as binding.

Substrate in data set [1]: NC(=O)C1=CN([C@@H]2O[C@H](COP(=O)(O)OP(=O)(O)OC[C@H]3O[C@@H](n4cnc5c(N)ncnc54)[C@H](O)[C@@H]3O)[C@@H](O)[C@H]2O)C=CC1
In words: purified protein. Particulars: 50 μM FMN, 20 mM PIPES, pH 7.4, 25 °C.

Substrate in data set [2]: Cc1cc2nc3c(=O)[nH]c(=O)nc-3n(C[C@H](O)[C@H](O)[C@H](O)COP(=O)(O)OP(=O)(O)OC[C@H]3O[C@@H](n4cnc5c(N)ncnc54)[C@H](O)[C@@H]3O)c2cc1C
Put plainly: purified protein. The settings on record: 50 μM NADH, 20 mM PIPES, pH 7.4, 25 °C.

Substrate in data set [3]: Cc1cc2nc3c(=O)[nH]c(=O)nc-3n(C[C@H](O)[C@H](O)[C@H](O)CO)c2cc1C
In words: purified protein. Particulars: 50 μM NADH, 20 mM PIPES, pH 7.4, 25 °C.

Substrate in data set [4]: Cc1cc2nc3c(=O)[nH]c(=O)nc-3n(C[C@H](O)[C@H](O)[C@H](O)COP(=O)(O)O)c2cc1C
Put plainly: purified protein. The settings on record: 50 μM NADH, 20 mM PIPES, pH 7.4, 25 °C.

A word on the Kd: it is the concentration at which binding is half-saturated. Read a high Kd as a looser complex. On DmoB, `Cc1cc2nc3c(=O)[nH]c(=O)nc-3n(C[C@H](O)[C@H](O)[C@H](O)COP(=O)(O)O)c2cc1C` [FMN] displayed a Kd of 1110 ± 710 nM.

B1: DmoB (Arthrobacter globiformis NBRC 12137) (protein)
chain: T1 sequence (H0QJX4 1-171)
Broadly, the Km is the concentration of substrate that gives half-maximal velocity. The Vmax is the top rate of the reaction or transport when substrate is in excess. Broadly, the kcat/Km is the second-order rate constant that governs catalysis at low substrate concentration. As to B1, the Michaelis constant (Km) was 2.3 ± 0.5 µM in the data set “purified protein [1]”, 84 ± 12 µM in “purified protein [2]”, 142 ± 7 µM in the data set “purified protein [3]” and 18 ± 5 µM in “purified protein [4]”. The Vmax in the data set “purified protein [1]” amounted to 149 µmol/min/mg; in the data set “purified protein [2]”, 153 µmol/min/mg; in “purified protein [3]”, 130 µmol/min/mg; in the data set “purified protein [4]”, 207 µmol/min/mg. Further, the kcat/Km in “purified protein [1]” stood at 2.09e+07 M⁻¹ s⁻¹; in “purified protein [2]”, 583000 M⁻¹ s⁻¹; in the data set “purified protein [3]”, 283000 M⁻¹ s⁻¹; in “purified protein [4]” it was 3.72e+06 M⁻¹ s⁻¹.
